Measured values reported in patent publication US20080095772A1 (Chugai, published 2008).
Each block holds one binder with its values, some of them ahead of it.

Experiments:
[1] = molecular target: T1, human PTHrP (1-34) (human); test: ELISA on plate-coated human PTHrP (1-34) (1 µg/ml); bound antibody detected with alkaline phosphatase-conjugated goat anti-human IgG; O.D. 405/620
T1 construct: Synthetic peptide (Peninsula; Peptide Research Institute), coated on ELISA plates at 1 µg/ml or used in solid phase RIA; also called human parathyroid hormone related protein (1-34)
Procedure: An ELISA plate for the determination of antigen binding ability was prepared as follows. Each of the wells of a 96-well plate for ELISA was coated with 100 μl of a solution comprising human PTHrP (1-34) (Peptide Research Institute) prepared in a coating buffer of a concentration of 1 μg/ml and then blocked with 200 μl of a dilution buffer. […] After incubating at room temperature and washing with PBS-Tween20, each well was added with 100 μl of a solution of alkaline phosphatase-conjugated goat anti-human IgG antibodies (TAGO). After incubating at room temperature and washing with PBS-Tween20, each well was added with 1 mg/ml of a substrate solution (“Sigma104”, p-nitrophenylphosphoric acid, SIGMA). The solution was measured for absorbance at −405 nm using Microplate Reader (Bio Rad).

[2] = molecular target: PTHrP (1-34+Cys) (human, C-terminal Cys coupled to sensor tip CM5 through PDEA (thiol coupling)); test: BIACORE (SPR), PTHrP (1-34+C) immobilised on CM5 through the C-terminal Cys, antibody as analyte
Procedure: In this experiment, kinetic analysis of the antigen-antibody interaction using BIACORE was conducted. PTHrP(1-34+Cys) was used as an antigen and adsorbed onto the sensor tip specifically for C-terminals. Purified antibodies of various concentrations were used as an analyte. From the sensorgram obtained, kinetics parameters (binding rate constant “kass” and dissociation rate constant “kdiss”) were calculated.
As a running buffer, HBS (10 mM HEPES, pH 7.4; 0.15 M NaCl; 3.4 mM EDTA; 0.005% Surfactant P20) at a flow rate of 5 μl/min. was employed. The carboxyl groups of carboxymethyldextran on the sensor tip CM5 were activated by an injection of 100 μl of 0.05M N-hydroxysuccinimide (NHS)/0.2M N-ethyl-N′-(3-dimethylaminopropyl)carbodiimide hydrochloride (EDC) and an injection of 100 μl of 80 mM 2-(2-pyridinyldithio)ethanamine (PDEA)/0.1M borate buffer (pH 8.5), and an additional injection of 10 μl of 5 μg/ml PTHrP (1-34+C)/10 mM sodium acetate buffer (pH 5.0) to adsorbe onto the C-terminals of PTHrP (1-34+C) specifically for Cys residues. Subsequently, an injection of 100 μl of 50 mM (L)-cystein/1M NaCl/0.1M sodium formate buffer (pH 4.3) was conducted to block excessively activated groups. Subsequently, an injection of 10 μl of 0.1M glycine-HCl buffer (pH 2.5) and 10 μl of 10 mM HCl was conducted to wash the substances having non-covalent bonding.
The date file of interest was read and a comparison of the reaction patterns was conducted by overlaying the reaction regions of interest (FIGS. 20-24). […] Further, kinetic analysis of the interaction was conducted using an analysis software specifically designed for BIACORE “BIAevaluation 2.1” (Pharmacia) which is capable of calculating the kinetics parameters (binding rate constant “kass” and dissociation rate constant “kdiss”) by curve cutting (Tables 4 and 5).

[3] = molecular target: T1, human PTHrP (1-34); test: solid phase RIA of hybridoma supernatants
[4] = molecular target: T1, human PTHrP (1-34); test: ELISA on plate-coated human PTHrP (1-34) (1 µg/ml); bound antibody detected with alkaline phosphatase-conjugated goat anti-human IgG; O.D. 405/620; remark: listed apart in the source
Procedure: (§1) An ELISA plate for determining antigen binding ability was prepared as follows. Each of the wells of a 96-well plate for ELISA (Maxisorp, NUNC) was coated with 100 μl of a coating buffer supplemented with 1 μg/ml of human PTHrP (1-34) and then blocked with 200 μl of a dilution buffer. Thereafter, into each of the wells, was added a culture supernatant of the COS-7 cells in which the hybrid antibody or humanized antibody was expressed or a solution of the purified hybrid antibody or the purified humanized antibody in stepwise dilution. After incubating at room temperature and washing with PBS-Tween20, 100 μl of alkaline phosphatase-conjugated goat anti-human IgG antibody (TAGO) was added to each of the wells. […] The solution was measured for absorbance at 405 nm using Microplate Reader (Bio Rad).

[5] = molecular target: T1, human PTHrP (1-34); test: as above; remark: listed apart in the source
Procedure: as §1

binding result [1]: binds
B1: chimeric #23-57-137-1 antibody with human κ L chain C region (antibody, V domains shown)
VH: EVQLVESGGDLVKPGGSLKLSCAASGFTFSSYGMSWIRQTPDKRLEWVATISSGGSYTYYPDSVKGRFTISRDNAKNTLYLQMSSLKSEDTAMFYCARQTTMTYFAYWGQGTLVTVSA
VL: QLVLTQSSSASFSLGASAKLTCTLSSQHSTYTIEWYQQQPLKPPKYVMDLKQDGSHSTGDGIPDRFSGSSSGADRYLSISNIQPEDEAMYICGVGDTIKEQFVYVFGGGTKVTVLG
notes: Mouse V regions on a human Cγ1 H chain C region and a human Cκ L chain C region (from HEF-PM1k-gk); also called chimeric antibody (κ); MBC1HcDNA + MBC1L(κ)/neo

Kd [2]: 0.102 nM | koff [2]: 7.38e-05 s⁻¹ | kon [2]: 723000 M⁻¹ s⁻¹ | binding result [3]: binds
B2: mouse monoclonal antibody #23-57-137-1 (antibody, V domains shown)
VH: B1 VH
VL: B1 VL
notes: Whole mouse antibody with a mouse λ L chain; The H chain cDNA was amplified with the MHC-G1 primer; also called MBC

binding result [4]: binds
B3: antibody comprising the humanized H chain version "a" and the chimeric L chain (antibody, V domains shown)
VH: QVQLVESGGGVVQPGRSLRLSCAASGFTFSSYGMSWVRQAPGKGLEWVATISSGGSYTYYPDSVKGRFTISRDNSKNTLYLQMNSLRAEDTAVYYCARQTTMTYFAYWGQGTLVTVSS
VL: B1 VL
notes: Human Cγ1 H chain C region

binding result [5]: binds
B4: humanized #23-57-137-1 antibody, H chain version a, L chain version j (antibody, V domains shown)
VH: B3 VH
VL: QLVLTQSPSASASLGASVKLTCTLSSQHSTYTIEWYQQQPEKGPKYLMDLKQDGSHSTGDGIPDRFSGSSSGAERYLTISSLQSEDEADYYCGVGDTIKEQFVYVFGGGTKLTVLG
notes: Human Cγ1 and human Cλ C regions; Expressed in COS-7

binding result [5]: no binding (tested: about 380 ng/ml)
B5: hH / hLf (antibody, V domains shown)
VH: B3 VH
VL: QLVLTQSPSASASLGASVKLTCTLSSQHSTYTIEWHQQQPEKGPRYLMKLKQDGSHSTGDGIPDRFSGSSSGAERYLTISSLQPEDEADYICGVGDTIKEQFVYVFGGGTKLTVL
notes: copies: 2 + 2
